Reference: patent US20030120038A1 (MERCK, published 2003)

Experiments:
[1] = biological target: T1, sVEGF-RI, natural soluble form of the FLT VEGF receptor, expressed by baculovirus in Sf9 insect cells (human, UniProt P17948 27-656); experiment: 96 well plate competition, immobilized sFLT, tracer [125I]PlGF, competitor unlabeled VEGF
T1 construct: also called sFLT; sFlt
Method: (§1) Briefly, sVEGF-RI, 50 to […] partially purified by Mono Q chromatography (Pharmacia), was diluted to 10 ml in 25 mM TRIS, pH 7.4, 100 mM NaCl, 20 mM NH₄HCO_{3.} Aliquots ([…]) were absorbed to the surface of a 96 well plate for 18 hours at 4° C., the plates were then washed twice with blocking buffer (DME, 25 mM HEPES, pH 7.5, 0.5% gelatin) and the nonspecific sites were blocked in the same buffer for 6 hours at 4° C. The plate was then washed twice in binding buffer. […] The wells were washed three times with […] of binding buffer, the bound protein was solubilized with […] of 1% SDS, 0.5% BSA and counted in a g counter. The results, shown in FIG. 7, were analyzed by the method of Scatchard [Scatchard, G., (1949) Ann. N.Y. Acad. Sci., 51, pp. 660-672].

[2] = biological target: T1, sVEGF-RI, natural soluble form of the …; experiment: 96 well plate assay, sVEGF-RI absorbed to the plate, various amounts of [125I]VEGF, Scatchard analysis
Method: as §1

[3] = biological target: T2, Ex-KDR, purified extracellular domain of the KDR VEGF receptor (UniProt P35968 20-764, limits assumed); experiment: covalent crosslinking (BS3) of purified Ex-KDR with [125I]PlGF, SDS/PAGE
T2 construct: extracellular domain; It may be the same construct; also called extracellular region of KDR
T2 sequence (P35968 20-764 limits assumed): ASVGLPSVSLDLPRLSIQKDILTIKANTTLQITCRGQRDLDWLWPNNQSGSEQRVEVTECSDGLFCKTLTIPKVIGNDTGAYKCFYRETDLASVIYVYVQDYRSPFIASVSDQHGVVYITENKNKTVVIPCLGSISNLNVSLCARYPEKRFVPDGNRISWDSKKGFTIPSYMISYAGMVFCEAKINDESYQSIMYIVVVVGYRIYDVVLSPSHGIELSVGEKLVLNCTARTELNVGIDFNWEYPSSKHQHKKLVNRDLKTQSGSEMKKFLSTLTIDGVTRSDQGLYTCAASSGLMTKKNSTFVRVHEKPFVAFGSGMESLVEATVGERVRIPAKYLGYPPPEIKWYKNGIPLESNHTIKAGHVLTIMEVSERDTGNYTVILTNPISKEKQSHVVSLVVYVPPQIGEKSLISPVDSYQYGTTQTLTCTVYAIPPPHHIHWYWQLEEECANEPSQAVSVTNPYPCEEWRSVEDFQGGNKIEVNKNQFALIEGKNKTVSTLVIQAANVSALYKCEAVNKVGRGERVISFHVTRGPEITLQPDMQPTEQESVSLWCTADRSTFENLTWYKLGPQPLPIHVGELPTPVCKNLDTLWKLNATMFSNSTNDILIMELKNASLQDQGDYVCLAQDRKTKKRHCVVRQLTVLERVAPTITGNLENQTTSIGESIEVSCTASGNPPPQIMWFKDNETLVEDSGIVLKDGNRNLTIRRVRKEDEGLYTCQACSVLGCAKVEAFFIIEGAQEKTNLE
Method: The reactions were then crosslinked with 1 mM BS³ at 25° C. for 15 min followed by the addition of boiling Laemmli sample buffer (10). The crosslinked products were analyzed by SDS/7.5% PAGE and the complexes were visualized using a Phosphohnager (Molecular Dynamics, Sunnyvale, Calif.).
The reactions were then crosslinked with 1 mM BS³ at 25° C. for 15 min followed by the addition of boiling Laemmli sample buffer. The crosslinked products were analyzed by SDS/7.5% PAGE and the complexes were visualized using a Phosphohnager (Molecular Dynamics, Sunnyvale, Calif.).

[4] = biological target: T1, sVEGF-RI, natural soluble form of the …; experiment: 96 well plate competition, immobilized sFLT; reference is PlGF displacing [125I]PlGF
Method: as §1

[5] = biological target: T1, sVEGF-RI, natural soluble form of the …; experiment: 96 well plate competition, immobilized sFLT, tracer [125I]PlGF, competitor unlabeled PlGF
Method: as §1

[6] = biological target: T1, sVEGF-RI, natural soluble form of the …; experiment: 96 well plate competition, immobilized sFLT, tracer [125I]VEGF, competitor unlabeled PlGF
Method: as §1

T1 sequence (P17948 other isoform, or with tags, fused parts or gaps): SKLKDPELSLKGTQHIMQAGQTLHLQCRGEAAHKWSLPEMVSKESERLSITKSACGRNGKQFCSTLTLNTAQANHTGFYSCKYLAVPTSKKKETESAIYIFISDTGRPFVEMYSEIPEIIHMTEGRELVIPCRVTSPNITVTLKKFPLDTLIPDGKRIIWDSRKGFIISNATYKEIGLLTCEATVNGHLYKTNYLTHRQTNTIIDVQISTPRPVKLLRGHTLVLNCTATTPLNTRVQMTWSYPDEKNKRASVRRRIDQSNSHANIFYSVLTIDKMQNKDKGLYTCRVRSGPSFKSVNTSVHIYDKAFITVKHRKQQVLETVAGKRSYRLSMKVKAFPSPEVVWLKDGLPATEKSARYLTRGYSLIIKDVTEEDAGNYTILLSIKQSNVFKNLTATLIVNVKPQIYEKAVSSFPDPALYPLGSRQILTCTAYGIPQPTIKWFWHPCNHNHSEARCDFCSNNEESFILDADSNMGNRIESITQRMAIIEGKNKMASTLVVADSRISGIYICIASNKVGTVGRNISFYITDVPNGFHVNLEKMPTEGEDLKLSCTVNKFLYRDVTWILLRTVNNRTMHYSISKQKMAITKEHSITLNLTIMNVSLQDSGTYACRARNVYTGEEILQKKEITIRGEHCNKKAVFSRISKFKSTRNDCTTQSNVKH

| IC50 [1] [nM] | Kd [2] [nM] | binding result [3] | fold higher concentration to displace 50% of [125I]VEGF than of [125I]PlGF [4] [fold] | IC50 [5] [nM] | IC50 [6] [nM] | Binder |
| --- | --- | --- | --- | --- | --- | --- |
| 0.01 | ~0.02 |  |  |  |  | human recombinant vascular endothelial cell growth factor (VEGF) (ligand, UniProt P15692-4 27-191, looked up, 125I label (chloramine T method) in the tracer form, also called unlabeled VEGF) APMAEGGGQNHHEVVKFMDVYQRSYCHPIETLVDIFQEYPDEIEYIFKPSCVPLMRCGGCCNDEGLECVPTEESNITMQIMRIKPHQGQHIGEMSFLQHNKCECRPKKDRARQENPCGPCSERRKHLFVQDPQTCKCSCKNTDSRCKARQLELNERTCRCDKPRR |
|  |  | no binding | ~5 | ~0.11 | ~0.55 | recombinant human PlGF (ligand, UniProt P49763-2 19-149, looked up, 125I label (chloramine T method) in the tracer form, also called PIGF) LPAVPPQQWALSAGNGSSEVEVVPFQEVWGRSYCRALERLVDVVSEYPSEVEHMFSPSCVSLLRCTGCCGDENLHCVPVETANVTMQLLKIRSGDRPSYVELTFSQHVRCECRPLREKMKPERCGDAVPRR |
